Results on one substance are retold here after paper PMC4876375.

The target of this experiment is chimeric mouse h-ferritin-M6A (recombinant) (mouse | not stated). Briefly: SEC; HiLoad 26/60 Superdex 200; 20 mM Tris-HCl pH 8, 200 mM KCl, 10% glycerol, 2 mM TCEP; elution volume compared with horse spleen ferritin (~440 kDa).

Take “chimeric mouse h-ferritin-M6A (recombinant)”: the stoichiometry N (in general, a count of units in the complex or per binding partner) was found to be 24.
